Experimental data taken from IntAct's records for PubMed 23023224.

B1: Unconventional myosin-VI (Homo sapiens), Q9UM54 (parent)
chain: MEDGKPVWAPHPTDGFQMGNIVDIGPDSLTIEPLNQKGKTFLALINQVFPAEEDSKKDVEDNCSLMYLNEATLLHNIKVRYSKDRIYTYVANILIAVNPYFDIPKIYSSEAIKSYQGKSLGTRPPHVFAIADKAFRDMKVLKMSQSIIVSGESGAGKTENTKFVLRYLTESYGTGQDIDDRIVEANPLLEAFGNAKTVRNNNSSRFGKFVEIHFNEKSSVVGGFVSHYLLEKSRICVQGKEERNYHIFYRLCAGASEDIREKLHLSSPDNFRYLNRGCTRYFANKETDKQILQNRKSPEYLKAGSMKDPLLDDHGDFIRMCTAMKKIGLDDEEKLDLFRVVAGVLHLGNIDFEEAGSTSGGCNLKNKSAQSLEYCAELLGLDQDDLRVSLTTRVMLTTAGGTKGTVIKVPLKVEQANNARDALAKTVYSHLFDHVVNRVNQCFPFETSSYFIGVLDIAGFEYFEHNSFEQFCINYCNEKLQQFFNERILKEEQELYQKEGLGVNEVHYVDNQDCIDLIEAKLVGILDILDEENRLPQPSDQHFTSAVHQKHKDHFRLTIPRKSKLAVHRNIRDDEGFIIRHFAGAVCYETTQFVEKNNDALHMSLESLICESRDKFIRELFESSTNNNKDTKQKAGKLSFISVGNKFKTQLNLLLDKLRSTGASFIRCIKPNLKMTSHHFEGAQILSQLQCSGMVSVLDLMQGGYPSRASFHELYNMYKKYMPDKLARLDPRLFCKALFKALGLNENDYKFGLTKVFFRPGKFAEFDQIMKSDPDHLAELVKRVNHWLTCSRWKKVQWCSLSVIKLKNKIKYRAEACIKMQKTIRMWLCKRRHKPRIDGLVKVGTLKKRLDKFNEVVSVLKDGKPEMNKQIKNLEISIDTLMAKIKSTMMTQEQIQKEYDALVKSSEELLSALQKKKQQEEEAERLRRIQEEMEKERKRREEDEKRRRKEEEERRMKLEMEAKRKQEEEERKKREDDEKRIQAEVEAQLARQKEEESQQQAVLEQERRDRELALRIAQSEAELISDEAQADLALRRSLDSYPVSKNDGTRPKMTPEQMAKEMSEFLSRGPAVLATKAAAGTKKYDLSKWKYAELRDTINTSCDIELLAACREEFHRRLKVYHAWKSKNKKRNTETEQRAPKSVTDYDFAPFLNNSPQQNPAAQIPARQREIEMNRQQRFFRIPFIRPADQYKDPQSKKKGWWYAHFDGPWIARQMELHPDKPPILLVAGKDDMEMCELNLEETGLTRKRGAEILPRQFEEIWERCGGIQYLQNAIESRQARPTYATAMLQSLLK
B2: Unconventional myosin-VI (Homo sapiens), Q9UM54 (parent)
chain: B1 chain
partner: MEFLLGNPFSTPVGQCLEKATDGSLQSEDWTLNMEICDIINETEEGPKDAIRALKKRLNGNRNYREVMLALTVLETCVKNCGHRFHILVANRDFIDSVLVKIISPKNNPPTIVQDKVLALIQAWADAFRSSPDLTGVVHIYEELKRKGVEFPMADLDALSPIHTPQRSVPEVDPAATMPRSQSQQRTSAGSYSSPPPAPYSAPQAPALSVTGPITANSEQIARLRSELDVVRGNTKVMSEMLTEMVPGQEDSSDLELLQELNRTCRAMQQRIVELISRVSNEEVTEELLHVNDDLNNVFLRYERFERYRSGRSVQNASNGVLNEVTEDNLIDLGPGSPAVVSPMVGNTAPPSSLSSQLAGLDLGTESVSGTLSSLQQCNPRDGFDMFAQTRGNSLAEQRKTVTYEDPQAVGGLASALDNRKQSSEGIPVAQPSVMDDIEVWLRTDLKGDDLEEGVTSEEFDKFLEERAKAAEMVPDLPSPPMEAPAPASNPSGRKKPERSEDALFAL

Variants of: B1
Conditions: with TOM1, O60784-1
Chain of TOM1, O60784-1 (O60784 whole entry): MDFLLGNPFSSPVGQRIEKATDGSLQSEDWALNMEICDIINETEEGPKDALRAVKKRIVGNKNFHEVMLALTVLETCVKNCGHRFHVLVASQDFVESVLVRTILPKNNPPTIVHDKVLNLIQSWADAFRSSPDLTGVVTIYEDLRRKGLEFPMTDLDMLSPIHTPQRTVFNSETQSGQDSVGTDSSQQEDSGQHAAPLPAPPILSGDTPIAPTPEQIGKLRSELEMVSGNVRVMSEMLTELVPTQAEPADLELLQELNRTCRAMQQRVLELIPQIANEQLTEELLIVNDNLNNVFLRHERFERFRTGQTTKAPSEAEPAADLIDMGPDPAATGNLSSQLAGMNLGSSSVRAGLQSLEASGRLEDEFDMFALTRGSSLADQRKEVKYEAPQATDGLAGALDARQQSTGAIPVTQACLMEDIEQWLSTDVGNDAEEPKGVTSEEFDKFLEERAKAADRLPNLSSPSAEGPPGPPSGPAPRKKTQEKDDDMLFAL

Row | effect of a mutation on the interaction | Variant
1 | disrupting interaction strength | W1202L

Variants of: B2
Conditions: with tm1l2_human TOM1L2, Q6ZVM7

Row | effect of a mutation on the interaction | Variant
2 | disrupting interaction strength | W1202L
